Publication PMC11211068 (The Journal of Experimental Medicine, 2024)
Where a chain is given by its changes, count along the chain named.

Tests used:
[1] = target: T1, H1 HA from A/Michigan/45/2015 H1N1, recombinant (Immune Technology) (Influenza A virus A/Michigan/45/2015 …, UniProt A0A1J0CXU0, strain); assay: ELISA
[2] = target: H1 HA from A/Norway/3206-3/2009 H1N1, recombinant (IRR FR-697) (Influenza A virus A/Norway/3206-3/2009 …, UniProt C3W5S1, strain); assay: ELISA
[3] = target: H1 HA from A/California/04/2009 H1N1pdm09, recombinant (Immune Technology) (Influenza A virus A/California/04/2009 …, UniProt C3W5S1, strain); assay: ELISA
[4] = target: H1 HA from A/Brisbane/59/2007 H1N1, recombinant (IRR FR-65) (Influenza A virus A/Brisbane/59/2007 …, UniProt D5F1Q8, strain); assay: ELISA
[5] = target: H1 HA from A/Solomon Islands/3/2006 H1N1, recombinant (IRR FR-67) (Influenza A virus A/Solomon …, UniProt A7Y8I1, strain); assay: ELISA
[6] = target: T1, H1 HA from A/Michigan/45/2015 H1N1, …; assay: BLI

Measured: binding result

B1: 05.GC.w13.02 (antibody, V domains shown)
VH: QVQLVQSGTEVKKPGSSVKVSCKASGVTFSSYAMSWVRQAPGQGLEWMGGFIPILGTANYAQKFQGRLTITADGLTGTVYMELSRLRSEDTAVYYCAREVTWKGASIGVLGIWGQGTMVSVSA
VL: DIQMTQSPSSLSASVGDRVIITCRANQSIGGYLNWYQQKPGKAPNLLIFTASTLQSGVPSRFSGGGSGTDFTLTISSLQPEDFATYYCQQNYNTPRTFGQGTKVDIK
binds: [1] | [2] | [3] | [4] | [5]

B2: 05.GC.w13.01 (antibody, V domains shown)
VH: QVQLVQSGAEVKKPGSSVKVSCEASGVTFSSYAVSWVRQAPGQGLEWMGGIIPIVGTANYAQKFQGRVTITADGLTSTVYMELSRLRSEDTAVYFCAREATWKGSSIGVLGIWGQGTMVTVSA
VL: B1 VL with I20T, N26S, G30S, G31D, N45S, T50S, G65S, D105E
binds: [1] | [2] | [3] | [4] | [5]

B3: 05.GC.w13.02 Fab, His6 tag removed with thrombin (Fab, V domains shown)
VH: B1 VH
VL: B1 VL
binds: [6]

B4: 05.GC.w2.3C10 (antibody, V domains shown)
VH: EVQLVQSGAEVKKPGSSVRVSCKASGGTFSAISWVRQAPGQGLEWMGGIIPVFGTANYAQKFQGRVTITADDSTSTAYMEVSSLRSDDTAVYYCAREETWKGATIGVMGIWGQGTMVTVSS
VL: DIQMTQSPSSLSASVGDRVTITCRASQSISSYLNWYQHKPGKAPKLLIFTASNLQSGVPSRFSGGGSGTDFTLTISSLQPEDFATYYCQQSYTSPRTFGQGTKVEIK
binds: [1] | [4] | [5]
